Values of other authors in PMC8305778.

Biological target: FcεRIα (Homo sapiens) (UniProt P12319)
Experiment: given as Ka

Chain of UniProt P12319 (P12319 26-257): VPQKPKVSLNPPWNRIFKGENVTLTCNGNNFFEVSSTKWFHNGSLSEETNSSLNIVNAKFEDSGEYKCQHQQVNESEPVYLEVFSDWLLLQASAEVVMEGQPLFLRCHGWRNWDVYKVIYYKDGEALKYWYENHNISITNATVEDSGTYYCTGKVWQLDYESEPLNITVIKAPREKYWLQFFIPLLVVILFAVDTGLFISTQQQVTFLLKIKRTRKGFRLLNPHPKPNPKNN

- Kd: 100 pM
Substance: IgE Fc (from UniProt P01854)
